Ends that are not written are not given here.

Common to all, as to assay: cell-based or functional assay
For experiment [1], the target named is human natriuretic peptide receptor B (NPR-B) (human) (UniProt P20594).
Experiment [2] has as its target purified neutral endopeptidase (NEP) (UniProt P08473).
Experiment [3] deals with human natriuretic peptide receptor A (NPR-A) (human) (UniProt P16066).
Chain of human natriuretic peptide receptor A (NPR-A) (human) (P16066 33-1061): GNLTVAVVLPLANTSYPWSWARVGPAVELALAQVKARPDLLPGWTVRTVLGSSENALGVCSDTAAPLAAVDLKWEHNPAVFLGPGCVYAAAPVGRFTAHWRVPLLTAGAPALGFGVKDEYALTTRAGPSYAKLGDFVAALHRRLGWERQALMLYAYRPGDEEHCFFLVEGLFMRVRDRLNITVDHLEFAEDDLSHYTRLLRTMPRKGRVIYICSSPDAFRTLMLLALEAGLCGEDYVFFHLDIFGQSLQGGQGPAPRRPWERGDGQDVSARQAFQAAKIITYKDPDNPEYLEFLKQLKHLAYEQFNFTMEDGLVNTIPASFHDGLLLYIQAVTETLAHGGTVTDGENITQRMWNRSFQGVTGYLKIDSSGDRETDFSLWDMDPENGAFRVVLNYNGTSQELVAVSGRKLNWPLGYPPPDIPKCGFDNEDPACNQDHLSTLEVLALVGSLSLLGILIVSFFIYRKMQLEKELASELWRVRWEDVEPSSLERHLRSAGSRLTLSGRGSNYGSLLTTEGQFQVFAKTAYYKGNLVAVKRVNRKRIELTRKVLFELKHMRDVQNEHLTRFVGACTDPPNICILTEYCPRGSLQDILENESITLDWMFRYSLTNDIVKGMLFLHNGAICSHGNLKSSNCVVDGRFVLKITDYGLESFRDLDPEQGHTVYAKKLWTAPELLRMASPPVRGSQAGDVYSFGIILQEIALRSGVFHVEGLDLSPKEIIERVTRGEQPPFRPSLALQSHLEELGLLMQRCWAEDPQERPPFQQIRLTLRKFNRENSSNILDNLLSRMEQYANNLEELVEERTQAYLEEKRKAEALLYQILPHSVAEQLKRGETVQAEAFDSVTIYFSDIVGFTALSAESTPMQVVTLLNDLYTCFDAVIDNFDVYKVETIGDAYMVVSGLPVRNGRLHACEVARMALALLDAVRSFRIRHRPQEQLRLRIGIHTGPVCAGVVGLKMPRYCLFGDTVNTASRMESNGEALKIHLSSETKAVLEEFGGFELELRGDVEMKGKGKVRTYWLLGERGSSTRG

Chain of purified neutral endopeptidase (NEP) (P08473 52-750 limits assumed): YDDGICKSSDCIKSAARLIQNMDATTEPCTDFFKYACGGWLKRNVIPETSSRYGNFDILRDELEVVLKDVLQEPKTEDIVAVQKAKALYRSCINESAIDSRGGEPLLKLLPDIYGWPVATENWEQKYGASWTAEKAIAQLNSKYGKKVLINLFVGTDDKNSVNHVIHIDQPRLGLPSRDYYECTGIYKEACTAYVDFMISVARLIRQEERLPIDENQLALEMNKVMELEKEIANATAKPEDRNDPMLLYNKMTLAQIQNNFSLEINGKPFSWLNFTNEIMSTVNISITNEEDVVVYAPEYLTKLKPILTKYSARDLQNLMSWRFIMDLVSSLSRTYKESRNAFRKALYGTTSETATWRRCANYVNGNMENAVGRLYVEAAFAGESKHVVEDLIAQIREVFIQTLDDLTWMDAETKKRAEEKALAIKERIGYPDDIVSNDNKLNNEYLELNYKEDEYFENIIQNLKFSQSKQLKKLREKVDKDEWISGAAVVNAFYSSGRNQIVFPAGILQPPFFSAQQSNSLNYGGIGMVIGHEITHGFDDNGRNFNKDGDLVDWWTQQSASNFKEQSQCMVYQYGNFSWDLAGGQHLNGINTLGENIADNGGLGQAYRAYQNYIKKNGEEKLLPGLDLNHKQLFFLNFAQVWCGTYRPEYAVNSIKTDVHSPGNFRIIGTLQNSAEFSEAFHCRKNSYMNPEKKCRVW
Chain of human natriuretic peptide receptor B (NPR-B) (human) (P20594 23-1047): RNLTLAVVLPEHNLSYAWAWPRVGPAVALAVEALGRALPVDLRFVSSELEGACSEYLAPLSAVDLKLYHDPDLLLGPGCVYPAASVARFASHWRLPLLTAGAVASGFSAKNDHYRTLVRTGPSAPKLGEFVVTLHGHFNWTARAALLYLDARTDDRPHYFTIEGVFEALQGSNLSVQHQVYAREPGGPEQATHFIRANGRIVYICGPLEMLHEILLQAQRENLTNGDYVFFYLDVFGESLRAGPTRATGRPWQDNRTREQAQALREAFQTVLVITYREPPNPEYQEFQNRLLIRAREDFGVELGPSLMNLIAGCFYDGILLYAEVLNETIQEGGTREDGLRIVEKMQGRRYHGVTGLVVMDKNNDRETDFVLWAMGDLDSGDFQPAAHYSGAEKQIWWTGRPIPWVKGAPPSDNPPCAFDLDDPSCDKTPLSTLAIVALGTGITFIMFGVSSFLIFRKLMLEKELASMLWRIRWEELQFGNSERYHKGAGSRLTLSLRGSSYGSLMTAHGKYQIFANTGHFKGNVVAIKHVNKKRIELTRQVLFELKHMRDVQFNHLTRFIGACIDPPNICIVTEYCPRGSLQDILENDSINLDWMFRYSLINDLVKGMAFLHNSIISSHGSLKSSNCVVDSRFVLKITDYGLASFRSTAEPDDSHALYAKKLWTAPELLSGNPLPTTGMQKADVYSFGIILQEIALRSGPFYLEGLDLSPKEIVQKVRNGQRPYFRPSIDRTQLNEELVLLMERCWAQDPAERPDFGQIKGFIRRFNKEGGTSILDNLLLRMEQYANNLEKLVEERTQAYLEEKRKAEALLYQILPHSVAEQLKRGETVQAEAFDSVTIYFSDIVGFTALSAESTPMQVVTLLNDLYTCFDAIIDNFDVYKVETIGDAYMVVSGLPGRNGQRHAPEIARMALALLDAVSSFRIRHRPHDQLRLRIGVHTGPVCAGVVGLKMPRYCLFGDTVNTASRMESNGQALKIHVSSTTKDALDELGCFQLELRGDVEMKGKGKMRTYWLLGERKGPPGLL

As for EEEEEESGGGGSGGGGSGGGGGLSKGCFGLKLDRIGSMSGLGC [C1(E6) [BC1]], in experiment [1], the % Efficacy was 97%; the EC50 (nM), NPR-B whole cell cGMP assay was 1740 nM; the EC50 Ratio versus CNP22 stood at 118; the Rescue Ratio Average stood at 122. The % of control after 240 min (intact peptide by RP-HPLC after incubation with NEP) in experiment [2] came to 99%.

As to EEEEEEHKLRGQEHPNARKYKGANKKGLSKGCFGLKLDRIGSMSGLGC [KB1(E6)], in experiment [1], the % Efficacy turned out to be 109%; the EC50 (nM), NPR-B whole cell cGMP assay came to 84.5 nM; the EC50 Ratio versus CNP22 amounted to 5.75; the Rescue Ratio Average worked out at 5.6. Moreover, the % of control after 240 min (intact peptide by RP-HPLC after incubation with NEP) in experiment [2] is 107%.

For EEEEEEHGPQGQEHPNARKYKGANKKGLSKGCFGLKLDRIGSMSGLGC [KA1(E6)], in experiment [1], the % Efficacy turned out to be 108%; the EC50 (nM), NPR-B whole cell cGMP assay stood at 144 nM; the EC50 Ratio versus CNP22 turned out to be 9.79; the Rescue Ratio Average is 8.2. This molecule registered a % of control after 240 min (intact peptide by RP-HPLC after incubation with NEP) in experiment [2] of 108%.

The molecule DDDDDDGGGGSGGGGSGGGGGLSKGCFGLKLDRIGSMSGLGC [D6-14AAlinker-CNP [C3]] had a % of control after 240 min (intact peptide by RP-HPLC after incubation with NEP) in experiment [2] of 101%.

Regarding EEEEEESGGGGSGGGKGANKKGLSKGCFGLKLDRIGSMSGLGC [C4(E6) [BC4]], in experiment [1], the % Efficacy came to 136%; the EC50 (nM), NPR-B whole cell cGMP assay came to 302 nM; the EC50 Ratio versus CNP22 was found to be 20.5; the Rescue Ratio Average is 18. In experiment [2], this molecule registered a % of control after 240 min (intact peptide by RP-HPLC after incubation with NEP) of 94%.

On to EEEEEESGGGGSGGGQGANKQGLSKGCFGLKLDRIGSMSGLGC [C11(E6) [BC11]], for which, in experiment [1], the % Efficacy was 95%; the EC50 (nM), NPR-B whole cell cGMP assay amounted to 888 nM; the EC50 Ratio versus CNP22 is 60.4; the Rescue Ratio Average was found to be 120. The molecule also had a % of control after 240 min (intact peptide by RP-HPLC after incubation with NEP) in experiment [2] of 102%.

With EEEEEESGGGGSGGGKGANQQGLSKGCFGLKLDRIGSMSGLGC [C9(E6) [BC9]], in experiment [1], the % Efficacy stood at 95%; the EC50 (nM), NPR-B whole cell cGMP assay turned out to be 1170 nM; the EC50 Ratio versus CNP22 was determined as 79.3; the Rescue Ratio Average is 87. Further, the % of control after 240 min (intact peptide by RP-HPLC after incubation with NEP) in experiment [2] stood at 98%.

In the case of EEEEEESGGGGSGGGQGANKKGLSKGCFGLKLDRIGSMSGLGC [C8(E6) [BC8]], in experiment [1], the % Efficacy was 97%; the EC50 (nM), NPR-B whole cell cGMP assay is 719 nM; the EC50 Ratio versus CNP22 came out at 48.9; the Rescue Ratio Average worked out at 52. In experiment [2], the % of control after 240 min (intact peptide by RP-HPLC after incubation with NEP) turned out to be 103%.

As to EEEEEESGGGGSGGGQGANQQGLSKGCFGLKLDRIGSMSGLGC [C5(E6) [BC5]], in experiment [1], the % Efficacy was 96%; the EC50 (nM), NPR-B whole cell cGMP assay was 2360 nM; the EC50 Ratio versus CNP22 was 161; the Rescue Ratio Average came to 138. In addition, in experiment [2], the % of control after 240 min (intact peptide by RP-HPLC after incubation with NEP) was 100%.

For the molecule EEEEEESGGGGSGGGKGANQKGLSKGCFGLKLDRIGSMSGLGC [C7(E6) [BC7]], in experiment [1], the % Efficacy is 95%; the EC50 (nM), NPR-B whole cell cGMP assay amounted to 1010 nM; the EC50 Ratio versus CNP22 came to 68.6; the Rescue Ratio Average turned out to be 80. Also, in experiment [2], the % of control after 240 min (intact peptide by RP-HPLC after incubation with NEP) was 98%.

For the molecule EEEEEESGGGGSGGGQGANQKGLSKGCFGLKLDRIGSMSGLGC [C10(E6) [BC10]], in experiment [1], the % Efficacy worked out at 156%; the EC50 (nM), NPR-B whole cell cGMP assay is 2470 nM; the EC50 Ratio versus CNP22 was 168; the Rescue Ratio Average is 90. For the same molecule, the % of control after 240 min (intact peptide by RP-HPLC after incubation with NEP) in experiment [2] amounted to 102%.

On to EEEEEESGGGGSGGGKGANKQGLSKGCFGLKLDRIGSMSGLGC [C6(E6) [BC6]], for which, in experiment [1], the % Efficacy came out at 88%; the EC50 (nM), NPR-B whole cell cGMP assay was 672 nM; the EC50 Ratio versus CNP22 came to 45.7; the Rescue Ratio Average came out at 63. Further, the % of control after 240 min (intact peptide by RP-HPLC after incubation with NEP) in experiment [2] turned out to be 98%.

In the case of GLSKGCFGLKLDRIGSMSGLGCGGGGSGGGGSGGGGDDDDDD [CNP-14AAlinker-D6 [C4]], in experiment [1], the % Efficacy was determined as 156%; the EC50 (nM), NPR-B whole cell cGMP assay worked out at 2140 nM; the EC50 Ratio versus CNP22 amounted to 146; the Rescue Ratio Average turned out to be 545. The molecule also registered a % of control after 240 min (intact peptide by RP-HPLC after incubation with NEP) in experiment [2] of 75%.

For GLSKGCFGLKLDRIGSMSGLGCPSSAAPRPNAPSTSA (ends and bridges not checked; cysteine pairing not given here) [CDNP-S3A4A5], in experiment [1], the % loss in efficacy versus CDNP (NPR-B selective efficacy gain) worked out at 69%, the Approximate fold gain in selectivity versus CDNP (NPR-B over NPR-A) was 14.9 fold and the Approximate fold selectivity NPR-B versus NPR-A came out at 43.5 fold.

As to GLSKGCFGLKLDRIGSMSGLGCPSLADPRPNAPSTSA (ends and bridges not checked; cysteine pairing not given here) [CDNP-A4], in experiment [3], the % efficacy versus CDNP on NPR-A, membrane cGMP assay is 90% and the EC50 ratio versus CDNP on NPR-A, membrane cGMP assay worked out at 41.1. Also, in experiment [1], the % efficacy versus CDNP on NPR-B, membrane cGMP assay came out at 92%; the % loss in efficacy versus CDNP (NPR-B selective efficacy gain) came out at 2%; the Approximate fold gain in selectivity versus CDNP (NPR-B over NPR-A) was found to be 17.8 fold; the Approximate fold selectivity NPR-B versus NPR-A turned out to be 52 fold. Moreover, in experiment [1], the EC50 ratio versus CDNP on NPR-B, membrane cGMP assay is 2.31.

For the molecule GLSKGCFGLKLDRIGSMSGLGCPSLAAPRPNAPSTSA (ends and bridges not checked; cysteine pairing not given here) [CDNP-A4A5], in experiment [3], the % efficacy versus CDNP on NPR-A, membrane cGMP assay was 49% and the EC50 ratio versus CDNP on NPR-A, membrane cGMP assay is 0.48. Further, in experiment [1], the % efficacy versus CDNP on NPR-B, membrane cGMP assay was 85%; the % loss in efficacy versus CDNP (NPR-B selective efficacy gain) stood at 36%; the Approximate fold gain in selectivity versus CDNP (NPR-B over NPR-A) was determined as 0.98 fold; the Approximate fold selectivity NPR-B versus NPR-A was 2.86 fold. For the same molecule, in experiment [1], the EC50 ratio versus CDNP on NPR-B, membrane cGMP assay came out at 0.49.

For the molecule GLSKGCFGLKLDRIGSMSGLGCPSSADPRPNAPSTSA (ends and bridges not checked; cysteine pairing not given here) [CDNP-S3A4], in experiment [1], the % loss in efficacy versus CDNP (NPR-B selective efficacy gain) was 27%, the Approximate fold gain in selectivity versus CDNP (NPR-B over NPR-A) was found to be 28.5 fold and the Approximate fold selectivity NPR-B versus NPR-A was 83.2 fold.

GLSKGCFGLKLDRIGSMSGLGCPSLRAPRPNAPSTSA (ends and bridges not checked; cysteine pairing not given here) [CDNP-A5]: in experiment [3], the % efficacy versus CDNP on NPR-A, membrane cGMP assay is 114% and the EC50 ratio versus CDNP on NPR-A, membrane cGMP assay amounted to 1.33. In experiment [1], the % efficacy versus CDNP on NPR-B, membrane cGMP assay came out at 87%; the % loss in efficacy versus CDNP (NPR-B selective efficacy gain) was -27%; the Approximate fold gain in selectivity versus CDNP (NPR-B over NPR-A) was determined as 5.54 fold; the Approximate fold selectivity NPR-B versus NPR-A turned out to be 16.2 fold. In addition, the EC50 ratio versus CDNP on NPR-B, membrane cGMP assay in experiment [1] came out at 0.24.

With GLSKGCFGLKLDRIGSMSGLGCPSSRAPRPNAPSTSA (ends and bridges not checked; cysteine pairing not given here) [CDNP-S3A5], in experiment [3], the % efficacy versus CDNP on NPR-A, membrane cGMP assay came to 36% and the EC50 ratio versus CDNP on NPR-A, membrane cGMP assay stood at 1.33. In experiment [1], the % efficacy versus CDNP on NPR-B, membrane cGMP assay is 118%; the % loss in efficacy versus CDNP (NPR-B selective efficacy gain) amounted to 82%; the Approximate fold gain in selectivity versus CDNP (NPR-B over NPR-A) came out at 1.23 fold; the Approximate fold selectivity NPR-B versus NPR-A turned out to be 3.59 fold. The EC50 ratio versus CDNP on NPR-B, membrane cGMP assay in experiment [1] came to 1.08.

Turning to SLRRSSCFGGRMDRIGAQSGLGCNSFRY [atrial natriuretic peptide (ANP)], the EC50 on NPR-A (nM), whole cell cGMP assay in experiment [3] was 1.4 nM.

For the origin of these results see patent publication US20120164142A1.
